System: MS2 coat protein
Assay: apparent KD of MS2 coat protein; designed switch direction (-1 OFF switch, 1 ON switch): -1; higher = weaker reporter binding
Summary of the method: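 The apparent KD reported per design is the median over clusters of curve fits to normalised cluster fluorescence. The RNA switches were transcribed on Illumina chips by stalled E. coli RNA polymerase. SNAP-549-labelled MS2 coat protein was titrated from 0.7 or 1.5 nM, doubling up to 3 µM, in Tris-HCl pH 7.5 buffer containing KCl, MgCl2, BSA, DTT, tRNA and Tween-20, with no input, 200 uM small-molecule ligand, or an oligonucleotide input.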

[1] = input ligand: microRNA oligo, concentration not stated
[2] = Eterna round: R95, input ligand: microRNA oligo, concentration not stated
[3] = Eterna round: R95, input ligand: FMN 200 uM
[4] = Eterna round: R95, input ligand: none

Row | Sequence | apparent KD of MS2 coat protein (input ligand: FMN 200 uM) [nM] | apparent KD of MS2 coat protein (input ligand: none) [nM] | also measured
1 | AGCUAGUCAGGAUAUACGAACACCUCAAAAGAGGUGAAGGGACAUGAGGAUCACCCAUGUAGAAGGGACUAGCA [Mat - Exclusion 2 - JL mod - D29] (Eterna round: R96, puzzle: Exclusion 2) | 167 | 24.3 | apparent KD of MS2 coat protein [1]: 21.3 nM
2 | ACAUGUGUUGUAGGAUAUAGGACACAUGAGGAUCACCCAUGUGGAUUCAUGUCUAAGGAAGCGUCCUAGAAGGACGACAACAUG [Ex NG2 #26] (Eterna round: R96, puzzle: Exclusion NG 2) | 29.1 | 20 | apparent KD of MS2 coat protein [1]: 16.3 nM
3 | AGCGAGGUAGGAUAUACAUGAGGAUCACCCAUGUGCUUGCAUGGCGUGGAAUGUCGAGGUAGAAGGGCCAUGCC [EX3 #72] (Eterna round: R97, puzzle: Exclusion 3) | 33.2 | 27.2 | –
4 | GCCGAAAAUGUGAGGAUAUACCUAUGGAUACAUAGGUAGAAGGCACAUGAGGAUCACCCAUGUGUUUCAACGGC [Eli bmx4 4.21] (Eterna round: R97, puzzle: Brourd's mod of Exclusion 4) | 94.8 | 22.2 | –
5 | CGUGGCCGGUGAGGAUAUUGAUGACAUGAGGAUCACCCAUGUGUAUCCUCUCGAAAUACCGUGAUCAAGAAGGCAUGGUGCCAC [Ritibe] (Eterna round: R96, puzzle: Exclusion NG 2) | 68.5 | 14 | apparent KD of MS2 coat protein [1]: 12 nM
6 | UUGUCACAUGAGGAUCACCCAUGUGAGGAUAUGGCCCGCCCGGCGUGUGCUGGUUUUGUCAGAAGGCGCGUGGG [salish99_ex1_r4_028] (Eterna round: R97, puzzle: Exclusion 1) | 24.6 | 19.6 | –
7 | CCGGAUAUGCAGGAUAUCGUAUCGGAUACGAUACGAGAAGGGUAUACAUGAGGAUCACCCAUGUGUCCUACCGG [Mat - Exclusion 6 - Eli Mod - D85] (puzzle: Exclusion 6) | – | – | apparent KD of MS2 coat protein [2]: 19.8 nM
8 | CCUAAACAUGAGGAUCACCCAUGUGAGGAUAUGCACACCACAACAUGCGGUUGAGGGUGCAGAAGGCAUAUGAG [Eternabot (L1) Solution 60] (Eterna round: R97, puzzle: Exclusion 1) | 99.2 | 34.2 | –
9 | UUUUAGUCAGGAUAUACAUGAGGAUCACCCAUGUAAACUUUUAGUUUAAUUUGAAUGUGUAGAAGGGACAUUUU [Ex3 #44] (Eterna round: R97, puzzle: Exclusion 3) | 34.3 | 25.4 | –
10 | CGUGACUCAGGAUAUCUAUUGUAUCACAUGAGGAUCACCCAUGUCCAGCGAAAGCUGGAGGGAGAAGGGAGUCACG [Fiskers Ex 5 - 46] (puzzle: Exclusion 5) | – | – | apparent KD of MS2 coat protein [3]: 48.6 nM; apparent KD of MS2 coat protein [2]: 204 nM; apparent KD of MS2 coat protein [4]: 186 nM
11 | UCAGGUCGGUAGGAUAUCGACGGGAAAAUCCCACGAGAAGGACUGACAUGAGGAUCACCCAUGUGAGCGUAACC [EX6 B.11] (Eterna round: R97, puzzle: Exclusion 6) | 149 | 202 | –
12 | AGAGUGCUGCGAGGAUAUACAUGAGGAUCACCCAUGUGGAUCUGUGAGGCUUUGCCUCACAGGAUGUAGAAGGCGCAGUACUCA [Mat - Exclusion NG 2 - Mod of JL - D48] (Eterna round: R96, puzzle: Exclusion NG 2) | 178 | 25.4 | apparent KD of MS2 coat protein [1]: 18.2 nM
13 | GUAUAGCUAAAGGAUAUUCUCCGACGACGUGAAGAAGAAGGUUGGACAUGAGGAUCACCCAUGUGUACAGGAUA [Eternabot (L2) Solution 62] (Eterna round: R97, puzzle: Exclusion 6) | 21.9 | 21.8 | –
14 | UUAUUAAGUGUGAGGAUAUGCUGGUCCUUGGAUCAGCAGAAGGCACAUGAGGAUCACCCAUGUACUUUAUUUUA [JL bmx4 3.04] (puzzle: Brourd's mod of Exclusion 4) | – | – | apparent KD of MS2 coat protein [2]: 15.5 nM
15 | AGAAAUGCCCAUGGCCACAAGCUUUUUGCUUGUCUUACUACAUGAGGAUCACCCAUGUAACAUGGGCUCCUGACAAA [Soarriat] (puzzle: Sensor v3, turn-off variant 2) | – | – | apparent KD of MS2 coat protein [3]: 12.9 nM; apparent KD of MS2 coat protein [2]: 9.12 nM; apparent KD of MS2 coat protein [4]: 10.9 nM
16 | AAGCUGUCAGGAUAUCGUUAAUUUAGUUGUUUGUAUUAGUUCGAGAAGGGACAUGAGGAUCACCCAUGUAUGUA [Ex4 #39] (Eterna round: R97, puzzle: Exclusion 4) | 76.3 | 34.2 | –
17 | CUCGUGCAGCAAAGCUGUACGAGUACAUGAGGAUCACCCAUGUAGGAUAUGGUACGCAAAGCGUGCUAGAAGGAUAUGUGUAGG [Mat - Exclusion NG 3 - Mod of JL - D87] (Eterna round: R96, puzzle: Exclusion NG 3) | 61.5 | 50.5 | apparent KD of MS2 coat protein [1]: 32.7 nM
18 | AGUCAGAGAGGAUAUACAUGGGAAAAAAAAGUAAGAUCCCUACAUGAGGAUCACCCAUGUAGAAGGCUCUGACA [Ex2 Design 139: Sub-opt 3] (Eterna round: R96, puzzle: Exclusion 2) | – | – | apparent KD of MS2 coat protein [1]: 17.3 nM

Row | Sequence | apparent KD of MS2 coat protein (input ligand: FMN 200 uM) [nM] | apparent KD of MS2 coat protein (input ligand: none) [nM] | also measured
19 | UGUUGUUGAUAGGAUAUACUUGUAGGAGUUGUAGUAGAAGGAUCUACAUGAGGAUCACCCAUGUAGGAGUGAGU [JR_E6_Sub004] (puzzle: Exclusion 6) | – | – | apparent KD of MS2 coat protein [2]: 15.6 nM
20 | GGAUCUACUGAGGAUAUUAUAUCACCCGACUGAUAAGAAGGCAGUACAUGAGGAUCACCCAUGUGGGUAGCCAC [Polaris7] (Eterna round: R97, puzzle: Exclusion 6) | 79.6 | 99.4 | –
21 | GCGAAUAACGAGGAUAUCGUAUCGGAAACGAUACGAGAAGGUGUAACAUGAGGAUCACCCAUGUUCCUCAACGC [Fiskers Ex 6 - 7] (puzzle: Exclusion 6) | – | – | apparent KD of MS2 coat protein [2]: 33.1 nM
22 | GAUGUUUAAGGAUAUACAAUGAAUGUAUGCCACAUGGAAAUACAUGAGGAUCACCCAUGUAGAAGGUAAGGGAU [Eternabot (L2) Solution 37] (Eterna round: R97, puzzle: Exclusion 2) | 27.1 | 20.5 | –
23 | GCAAGAUUCUGAGGAUAUGCGCUACAUCCCACAGCAGAAGGCGGAAAUUGACUGACAUGAGGAUCACCCAUGUGAUCCGCUUUC [Eternabot solution 33] (Eterna round: R96, puzzle: Exclusion NG 1) | 32.7 | 17.7 | apparent KD of MS2 coat protein [1]: 21.2 nM
24 | UAUAUAUAGUAAGGAUAUGUAUUCAUUUUAUAAACAGAAGGUACUGACAUGAGGAUCACCCAUGUUUUAGUGUGGGCAUGUAGA [JMF's solution 10] (Eterna round: R96, puzzle: Exclusion NG 1) | – | – | apparent KD of MS2 coat protein [1]: 64.1 nM
25 | AUCAUGUAAGGAUAUCUUACAUGUAUCGAAAGAUACAGUUAAGAGAAGGUACAUGAGGAUCACCCAUGUAUAAC [Ex4-3: 35] (puzzle: Exclusion 4) | – | – | apparent KD of MS2 coat protein [2]: 25.2 nM
26 | UGCAGACGAGGAUAUAGAUUUGAUAACAUGAGGAUCACCCAUGUGAUCGAUAGAUCAGAUUUAGAAGGCGUCUGCA [E5/8-A2] (Eterna round: R97, puzzle: Exclusion 5) | 628 | 529 | –
27 | CCGUAGUCAGGAUAUACAUGAGGAUCACCCAUGUAAAAUUUUAAUUUAAUUUGAAGGUGUAGAAGGGACCAGCC [Ex3 #28] (Eterna round: R97, puzzle: Exclusion 3) | 33.5 | 35.6 | –
28 | AAGAAACAUGAGGAUCACCCAUGUGAGGAUAUGAUGAAGAAAAGAAAAGAAAGAAGAGUCAGAAGGCACAAAGG [salish99-ex1_r3_064] (puzzle: Exclusion 1) | – | – | apparent KD of MS2 coat protein [3]: 96 nM; apparent KD of MS2 coat protein [2]: 55.9 nM; apparent KD of MS2 coat protein [4]: 69.2 nM
29 | GUCUUAAGUUAAACCGAUUACAUGAGGAUCACCCAUGUGAACAUGACAGUCCGCAUGAGGAGUUUCUUGCUCGUCAU [Eternabot (L1) Solution 28] (Eterna round: R97, puzzle: Sensor, turn-off variant 1) | 49.6 | 46.8 | –
30 | UUGAACCCGGUAGGAUAUAUUGUGGGCAAACAUGGAACAACAUGAGGAUCACCCAUGUAAUUUAGGUAGAAGGGCCAAAAGAUU [Excl-NG2-LRO06] (Eterna round: R96, puzzle: Exclusion NG 2) | 72.1 | 69.9 | apparent KD of MS2 coat protein [1]: 61 nM
31 | ACCUUACUGGUCAGGAUAUACAGUCUUUGGUGUGUGUAGAAGGGACAUGAGGAUCACCCAUGUAGGUUGCAGUA [alecazam60] (Eterna round: R97, puzzle: Brourd's mod of Exclusion 4) | 77.6 | 67.7 | –
32 | AUUAUGUAAGGAUAUCUUACAUGUGACUUCGGUCACUGUCAAGAGAAGGUACAUGAGGAUCACCCAUGUAUGAC [Ex4-3: 49] (puzzle: Exclusion 4) | – | – | apparent KD of MS2 coat protein [2]: 14.2 nM
33 | GAGUUAGCGUGUGGAAUAUACAUGAGGAUCACCCAUGUUAGCUUAUAUAUUGCUCGUCUUAUAACAACAAUUAACUG [Mod JX-Electric-eye3] (Eterna round: R97, puzzle: Sensor, turn-off variant 1) | 138 | 143 | –
34 | AUAAAUCAUGUAGGAUAUGCGUGGCGAAGCUAUGCAGAAGGACAUGAGGAUCACCCAUGUGCUUCCGUCUGCGUACAGACGGAA [Mat - Exclusion NG 1 - Mod of JL - D35] (Eterna round: R96, puzzle: Exclusion NG 1) | 64.8 | 190 | apparent KD of MS2 coat protein [1]: 228 nM
35 | AUAAUGUCAGGAUAUCAGUCGUACAGCCUCGGCUGUACGACUGAGAAGGGACAUGAGGAUCACCCAUGUGGUUA [E4/7-A2] (Eterna round: R97, puzzle: Exclusion 4) | 34.2 | 562 | –
